# Assay results taken from publication PMC3958483, “Fine Specificity and Molecular Competition in SLAM Family Receptor Signalling” (PLoS ONE, 2014).
# B1: SHIP-2: SH2 domain containing phosphatase (protein)
# chain: MASACGAPGPGGALGSQAPSWYHRDLSRAAAEELLARAGRDGSFLVRDSESVAGAFALCVLYQKHVHTYRILPDGEDFLAVQTSQGVPVRRFQTLGELIGLYAQPNQGLVCALLLPVEGEREPDPPDDRDASDGEDEKPPLPPRSGSTSISAPTGPSSPLPAPETPTAPAAESAPNGLSTVSHDYLKGSYGLDLEAVRGGASHLPHLTRTLATSCRRLHSEVDKVLSGLEILSKVFDQQSSPMVTRLLQQQNLPQTGEQELESLVLKLSVLKDFLSGIQKKALKALQDMSSTAPPAPQPSTRKAKTIPVQAFEVKLDVTLGDLTKIGKSQKFTLSVDVEGGRLVLLRRQRDSQEDWTTFTHDRIRQLIKSQRVQNKLGVVFEKEKDRTQRKDFIFVSARKREAFCQLLQLMKNKHSKQDEPDMISVFIGTWNMGSVPPPKNVTSWFTSKGLGKTLDEVTVTIPHDIYVFGTQENSVGDREWLDLLRGGLKELTDLDYRPIAMQSLWNIKVAVLVKPEHENRISHVSTSSVKTGIANTLGNKGAVGVSFMFNGTSFGFVNCHLTSGNEKTARRNQNYLDILRLLSLGDRQLNAFDISLRFTHLFWFGDLNYRLDMDIQEILNYISRKEFEPLLRVDQLNLEREKHKVFLRFSEEEISFPPTYRYERGSRDTYAWHKQKPTGVRTNVPSWCDRILWKSYPETHIICNSYGCTDDIVTSDHSPVFGTFEVGVTSQFISKKGLSKTSDQAYIEFESIEAIVKTASRTKFFIEFYSTCLEEYKKSFENDAQSSDNINFLKVQWSSRQLPTLKPILADIEYLQDQHLLLTVKSMDGYESYGECVVALKSMIGSTAQQFLTFLSHRGEETGNIRGSMKVRVPTERLGTRERLYEWISIDKDEAGAKSKAPSVSRGSQEPRSGSRKPAFTEASCPLSRLFEEPEKPPPTGRPPAPPRAAPREEPLTPRLKPEGAPEPEGVAAPPPKNSFNNPAYYVLEGVPHQLLPPEPPSPARAPVPSATKNKVAITVPAPQLGHHRHPRVGEGSSSDEESGGTLPPPDFPPPPLPDSAIFLPPSLDPLPGPVVRGRGGAEARGPPPPKAHPRPPLPPGPSPASTFLGEVASGDDRSCSVLQMAKTLSEVDYAPAGPARSALLPGPLELQPPRGLPSDYGRPLSFPPPRIRESIQEDLAEEAPCLQGGRASGLGEAGMSAWLRAIGLERYEEGLVHNGWDDLEFLSDITEEDLEEAGVQDPAHKRLLLDTLQLSK
# B2: SAP: small SH2 domain containing adapter protein (protein, UniProt O60880 1-128, looked up)
# SH2 domain-containing protein …: MDAVAVYHGKISRETGEKLLLATGLDGSYLLRDSESVPGVYCLCVLYHGYIYTYRVSQTETGSWSAETAPGVHKRYFRKIKNLISAFQKPDQGIVIPLQYPVEKKSSARSTQGTTGIREDPDVCLKAP
# B3: c-Src Tyrosine Kinase (CSK): SH2 domain containing protein pulled down by CD244 ITSM1 (protein)
# chain: MSAIQAAWPSGTECIAKYNFHGTAEQDLPFCKGDVLTIVAVTKDPNWYKAKNKVGREGIIPANYVQKREGVKAGTKLSLMPWFHGKITREQAERLLYPPETGLFLVRESTNYPGDYTLCVSCDGKVEHYRIMYHASKLSIDEEVYFENLMQLVEHYTSDADGLCTRLIKPKVMEGTVAAQDEFYRSGWALNMKELKLLQTIGKGEFGDVMLGDYRGNKVAVKCIKNDATAQAFLAEASVMTQLRHSNLVQLLGVIVEEKGGLYIVTEYMAKGSLVDYLRSRGRSVLGGDCLLKFSLDVCEAMEYLEGNNFVHRDLAARNVLVSEDNVAKVSDFGLTKEASSTQDTGKLPVKWTAPEALREKKFSTKSDVWSFGILLWEIYSFGRVPYPRIPLKDVVPRVEKGYKMDAPDGCPPAVYEVMKNCWHLDAAMRPSFLQLREQLEHIKTHELHL
# B4: SHIP-1: SH2 domain containing phosphatase (protein)
# chain: MVPCWNHGNITRSKAEELLSRTGKDGSFLVRASESISRAYALCVLYRNCVYTYRILPNEDDKFTVQASEGVSMRFFTKLDQLIEFYKKENMGLVTHLQYPVPLEEEDTGDDPEEDTVESVVSPPELPPRNIPLTASSCEAKEVPFSNENPRATETSRPSLSETLFQRLQSMDTSGLPEEHLKAIQDYLSTQLAQDSEFVKTGSSSLPHLKKLTTLLCKELYGEVIRTLPSLESLQRLFDQQLSPGLRPRPQVPGEANPINMVSKLSQLTSLLSSIEDKVKALLHEGPESPHRPSLIPPVTFEVKAESLGIPQKMQLKVDVESGKLIIKKSKDGSEDKFYSHKKILQLIKSQKFLNKLVILVETEKEKILRKEYVFADSKKREGFCQLLQQMKNKHSEQPEPDMITIFIGTWNMGNAPPPKKITSWFLSKGQGKTRDDSADYIPHDIYVIGTQEDPLSEKEWLEILKHSLQEITSVTFKTVAIHTLWNIRIVVLAKPEHENRISHICTDNVKTGIANTLGNKGAVGVSFMFNGTSLGFVNSHLTSGSEKKLRRNQNYMNILRFLALGDKKLSPFNITHRFTHLFWFGDLNYRVDLPTWEAETIIQKIKQQQYADLLSHDQLLTERREQKVFLHFEEEEITFAPTYRFERLTRDKYAYTKQKATGMKYNLPSWCDRVLWKSYPLVHVVCQSYGSTSDIMTSDHSPVFATFEAGVTSQFVSKNGPGTVDSQGQIEFLRCYATLKTKSQTKFYLEFHSSCLESFVKSQEGENEEGSEGELVVKFGETLPKLKPIISDPEYLLDQHILISIKSSDSDESYGEGCIALRLEATETQLPIYTPLTHHGELTGHFQGEIKLQTSQGKTREKLYDFVKTERDESSGPKTLKSLTSHDPMKQWEVTSRAPPCSGSSITEIINPNYMGVGPFGPPMPLHVKQTLSPDQQPTAWSYDQPPKDSPLGPCRGESPPTPPGQPPISPKKFLPSTANRGLPPRTQESRPSDLGKNAGDTLPQEDLPLTKPEMFENPLYGSLSSFPKPAPRKDQESPKMPRKEPPPCPEPGILSPSIVLTKAQEADRGEGPGKQVPAPRLRSFTCSSSAEGRAAGGDKSQGKPKTPVSSQAPVPAKRPIKPSRSEINQQTPPTPTPRPPLPVKSPAVLHLQHSKGRDYRDNTELPHHGKHRPEEGPPGPLGRTAMQ
# B5: EAT-2: small SH2 domain containing adapter protein (protein)
# chain: MDLPYYHGRLTKQDCETLLLKEGVDGNFLLRDSESIPGVLCLCVSFKNIVYTYRIFREKHGYYRIQTAEGSPKQVFPSLKELISKFEKPNQGMVVHLLKPIKRTSPSLRWRGLKLELETFVNSNSDYVDVLP
# modifications: left off: His tag, end not stated, state not stated
# notes: small SH2 domain containing adapter protein
# Tested on: not listed separately
# Experiment: Pull-down with phosphorylated CD244 ITSM1 from NK cell lysates, LC-MS/MS
# Format: binding
# Conditions: human NK cell lysates; compared with control phosphopeptide SHIP-1 Y865
# Procedure: For pull-down of associated proteins, streptavidin Sepharose (GE Healthcare) was pre-coated with saturating amounts of peptide or EAT-2. NK92 cells (4×10^8) were treated with 500 μM pervanadate for 15 minutes, then lysed in PBS, 1% Triton X-100, 1 mM sodium orthovanadate in the presence of mammalian protease inhibitor solution (Sigma). Lysates were pre-cleared by centrifugation, followed by incubation with streptavidin Sepharose. Peptide or EAT-2-coated streptavidin beads were incubated with NK92 lysates for 2 hours at 4°C with rotation. Beads were washed once with 15 ml ice cold PBS/1% (v/v) Triton X-100. Bound protein was eluted using 100 mM glycine-HCl pH 2.5.
# Protein samples were prepared for mass spectrometry as described previously. Briefly, eluted proteins were spun onto the membranes of Vivacon 500 filters (10,000 MWCO – Sartorius). Membranes were washed once with PBS then proteins were denatured with 8 M urea, reduced with 10 mM DTT in 25 mM ammonium bicarbonate buffer, followed by alkylation with 50 mM iodoacetamide. Proteins were then digested overnight with trypsin. Tryptic peptides were then eluted from the membrane and analyzed on an Ultimate 3000 HPLC-coupled Orbitrap XL mass spectrometer. Proteins were identified by liquid chromatography-coupled tandem mass-spectrometry (LC-MS/MS). Raw data files were converted to mzXML format using ReADW (v. 4.2.1) and submitted to the Central Proteomics Facilities Pipeline for database comparison and peptide identification. Searching against the International Protein Index (IPI) human protein sequence database for protein identification, protein and peptide hits were statistically validated by applying a 1% false discovery rate (FDR) by searching against a concatenated target/decoy database. Datasets were searched with variable peptide modifications for phosphotyrosine, phosphoserine, phosphothreonine, oxidation of methionine and deamination.
# Protein identification data were exported into ProteinCenter (v3.8.3013 – Thermo Fisher) for filtering and annotation. Results were filtered to remove any proteins with less than 3 unique peptides, less than 10 percent sequence coverage, or median protein probability scores less than 0.5. To establish sample specificity, any protein with at least 10-fold greater sequence coverage in one sample compared with the other was considered to be specific for that sample.
# Similarly, differences in specificity of inhibitory SH2 domain containing proteins for ITSMs are relevant to understanding mechanisms of inhibition by ITSMs. We focused on CD244 ITSMs to establish general paradigms.
row,Molecule,pull-down by CD244 ITSM1
1,B1,pulled down by the ITSM peptide
2,B2,identifying SAP and EAT-2
3,B3,pulled down by the ITSM peptide
4,B4,pulled down by the ITSM peptide
5,B5,identifying SAP and EAT-2

# Target: T1, EAT-2 (Homo sapiens, UniProt O14796)
# T1 sequence (O14796 1-132): B5 chain
# Experiment: EAT-2 expression in NK92 after RNA interference
# Format: cell-based
# Conditions: shRNA, NK92 cells; from 0.44 μM
# Procedure: Lentiviral constructs expressing gene-specific shRNAs in vector pLKO.1 were obtained from Open Biosystems. […] As a non-targeting control, the hairpin sequence 5′-[…] was expressed in pLKO.1. Lentiviral particles were produced through polyethylenimine (PEI-Sigma) co-transfection of 293 T cells with pLKO.1 along with packaging vectors pMD2.G and pSPAX2 (Addgene; Didier Trono Laboratory). Virus was produced in RPMI 1640/10% heat-inactivated FCS for 48–72 hours. Viral supernatants were collected and NK92 cells were transduced twice overnight in the presence of 1000 U/ml IL-2. Cells with stable shRNA expression were selected using 3 μg/ml puromycin (Invitrogen) for 72 hours prior to use in functional assays.
# For quantitation of protein expression, NK92 cell lysates were prepared using buffer (150 mM NaCl, 20 mM Tris-HCl pH 7.4, 10% glycerol, 2 mM EDTA, 10 mM NaF, 1 mM PMSF) containing 0.5% Triton X-100. Lysates were resolved by SDS-PAGE under reducing conditions using Novex gradient gels and transferred to nitrocellulose membranes for western blotting by standard protocols. […] SHP-2 levels in 10^5 cell equivalents were analysed in a similar manner with recombinant SHP-2 N+C as a standard (25, 50 and 100 ng) and anti-SHP-2 (Cell Signaling #3752). […] Quantitation of protein expression was performed using LI-COR Odyssey Sa software version 1.0. […]
row,Molecule,intracellular EAT-2 concentration after 50% knockdown
1,B5,approximately 0.2 μM
